Publication PMC11320570
pKd: −log10 of the molar value.

Tests used:
Experiment in all cases: ELISA
[1] = target: 2H12 mouse antibody
[2] = target: 3H5 mouse antibody
[3] = target: 513 engineered and humanized antibody

DENV-2 EDIII wild-type Fc-fusion antigen S298N; S300T
pKd [1]: 9.15
pKd [2]: 9.09
pKd [3]: 10.12

DENV-2 EDIII wild-type Fc-fusion antigen S298N; S300T; H317N
pKd [2]: 9.09
pKd [3]: 10.09

DENV-2 EDIII wild-type Fc-fusion antigen S298N; S300T; V309N; E311T; H317N
pKd [2]: 9.11
pKd [3]: < 9.58
